Article PMC3315527

Molecular target: chaperone receptors within native chloroplast membranes (dynamic TIRE)
Assay: total internal reflection ellipsometry (TIRE); dynamic: pea chloroplast membranes on Cr/Au slides; time course of Δ at 700 nm over 15 min at chaperone concentrations from 1 to 10 µg/ml in 100 mM Tris-HCl pH 8.0; 1/τ against concentration fitted to a line, KA = ka/kd

Sequence of Hsp90-2 (At5g56030), full length (P55737 whole entry): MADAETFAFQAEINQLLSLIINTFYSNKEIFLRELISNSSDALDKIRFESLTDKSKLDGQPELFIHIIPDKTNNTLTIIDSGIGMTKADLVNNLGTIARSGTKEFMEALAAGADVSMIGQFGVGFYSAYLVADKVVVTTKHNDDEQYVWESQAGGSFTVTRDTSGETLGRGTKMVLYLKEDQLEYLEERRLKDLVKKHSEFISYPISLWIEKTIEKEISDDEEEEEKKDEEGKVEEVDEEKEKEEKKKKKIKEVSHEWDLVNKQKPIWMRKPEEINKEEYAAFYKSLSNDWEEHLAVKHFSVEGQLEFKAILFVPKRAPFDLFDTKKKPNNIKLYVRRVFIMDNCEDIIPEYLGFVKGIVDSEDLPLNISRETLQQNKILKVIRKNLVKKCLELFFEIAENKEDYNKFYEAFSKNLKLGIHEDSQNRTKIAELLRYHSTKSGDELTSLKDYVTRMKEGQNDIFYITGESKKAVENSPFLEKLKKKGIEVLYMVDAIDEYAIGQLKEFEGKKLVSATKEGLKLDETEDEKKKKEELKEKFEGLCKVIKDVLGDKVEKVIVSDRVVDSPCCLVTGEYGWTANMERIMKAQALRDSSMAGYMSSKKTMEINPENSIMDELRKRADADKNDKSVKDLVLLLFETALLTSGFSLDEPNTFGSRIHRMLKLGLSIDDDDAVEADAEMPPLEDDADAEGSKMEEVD
Sequence of Hsp70-1 (At5g02500), full length (P22953 whole entry): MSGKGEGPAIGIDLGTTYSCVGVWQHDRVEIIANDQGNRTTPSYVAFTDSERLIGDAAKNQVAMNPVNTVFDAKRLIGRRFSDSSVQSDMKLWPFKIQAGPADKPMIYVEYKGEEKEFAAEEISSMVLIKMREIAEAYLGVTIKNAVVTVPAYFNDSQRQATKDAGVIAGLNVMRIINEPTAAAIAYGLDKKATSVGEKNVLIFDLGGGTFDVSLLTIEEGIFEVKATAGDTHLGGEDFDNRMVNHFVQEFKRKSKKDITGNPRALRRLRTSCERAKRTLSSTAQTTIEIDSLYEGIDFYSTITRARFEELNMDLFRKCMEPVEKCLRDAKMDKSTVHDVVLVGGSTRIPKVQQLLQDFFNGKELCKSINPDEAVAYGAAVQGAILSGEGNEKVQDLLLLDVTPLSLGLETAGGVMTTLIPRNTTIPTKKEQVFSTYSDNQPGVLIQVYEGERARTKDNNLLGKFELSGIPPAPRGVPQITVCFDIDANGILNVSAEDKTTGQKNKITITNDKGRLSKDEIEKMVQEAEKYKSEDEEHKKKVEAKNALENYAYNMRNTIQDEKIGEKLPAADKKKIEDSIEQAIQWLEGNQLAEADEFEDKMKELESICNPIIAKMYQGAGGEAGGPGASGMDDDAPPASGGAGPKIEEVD

Ka [M⁻¹] | Substance
8.74e+06 | Hsp90-2 (At5g56030), full length (from UniProt P55737 1-699) (natural protein)
9.15e+06 | Hsp70-1 (At5g02500), full length (from UniProt P22953 1-651) (natural protein)
